Measurements from patent publication US10202627B2, “Method for producing trehangelin” (THE KITASATO INSTITUTE, priority 2016, dated 2019).

Legend:
[1] = test system: animal cells (particularly, human cells); conditions: cited from earlier work
[2] = enoyl-CoA hydratase activity of recombinant OrfA, LC/MS; type: biochemical; conditions: 15.8 μg orfA with orfB and orfD, 500 μM NADPH, pH 7.5, 27° C., 16 hours
Procedure: (§1) A substrate of the target enzyme is added to the reaction solution. Specifically, in a 3-ketoacyl-CoA synthase activity assay, acetyl-CoA and methylmalonyl-CoA are added. In a 3-ketoacyl-CoA reductase activity assay, 2-methylacetoacetyl-CoA is added. In an enoyl-CoA hydratase activity assay, 3-hydroxy-2-methylbutyryl-CoA is added. In an acyltransferase activity assay, angelyl-CoA is added. The concentration of the substrate may be any concentration as far as it has no effect on the reaction, and is suitably 0.01 mM to 0.2 M of the reaction solution. The enzyme concentration for the reaction is not particularly limited, and is usually in a range of 0.001 mg/ml to 100 mg/ml.
(§2) The activity may be detected by a method that can measure a decrease of substrates or an increase of reaction products during the reaction. Examples of such methods include a method that separates and quantifies a target substance optionally by using thin layer chromatography, column chromatography, high-performance liquid chromatography (HPLC) and the like. […]
(§3) Next, it was examined whether the obtained recombinant enzyme protein (OrfA) catalysed production of angelyl-CoA from 3-hydroxy-2-methylbutyryl-CoA by employing the following reaction conditions. […] After termination of the reaction by adding 100 μl of methanol, it was analysed on LC/MS.

[3] = 3-ketoacyl-CoA synthase activity of recombinant OrfB, LC/MS; type: biochemical; conditions: 2.5 μg orfB, 250 μM acetyl-CoA, 250 μM methylmalonyl-CoA, pH 7.5, 27° C., 16 hours
Procedure: as §1, §2
as §3, with “(OrfB) catalyses” for “(OrfA) catalysed”, “2-methylacetoacetyl-CoA” for “angelyl-CoA”, “acetyl-CoA and methylmalonyl-CoA” for “3-hydroxy-2-methylbutyryl-CoA”

[4] = 3-ketoacyl-CoA reductase activity of recombinant OrfD, LC/MS; type: biochemical; conditions: 0.8 μg orfD with 2.5 μg orfB, 500 μM NADPH, pH 7.5, 27° C., 16 hours
Procedure: as §1, §2
as §3, with “(OrfD)” for “(OrfA)”, “3-hydroxy-2-methylbutyryl-CoA” for “angelyl-CoA”, “2-methylacetoacetyl-CoA” for “3-hydroxy-2-methylbutyryl-CoA”

[5] = acyltransferase activity of OrfC inferred from Streptomyces albus/pOSV556-orfABCD culture; type: cell-based, Streptomyces albus J1074; conditions: inferred from Examples 1 to 4
Procedure: Streptomyces albus/pOSV556-orfABCD was grown by shake culture in 10 ml of a liquid medium containing 1% yeast extract and 1% glucose at 27° C. for 1 day, which was then added 1 ml of 20% trehalose aqueous solution, and the shake culture was continued at 27° C. for 4 more days. The obtained culture medium was added 10 ml of ethanol and stirred for 1 hour. Ethanol in the extract was then removed by distillation under reduced pressure, and 5 ml of ethyl acetate was added to the obtained aqueous solution, which was thoroughly stirred, and then the ethyl acetate phase was collected. After concentration to dryness, the solid was dissolved in 100 μl of methanol and analysed on LC/MS to confirm production of trehangelin (FIG. 1).

C/C=C(/C)C(=O)OC1C(O)C(CO)OC(OC2OC(CO)C(O)C(OC(=O)/C(C)=C\C)C2O)C1O (stereo not drawn) [Trehangelin A]
toxicity towards animal cells (particularly, human cells) [1]: do not exhibit toxicity

C/C=C(/C)C(=O)OC1C(OC2OC(CO)C(O)C(OC(=O)/C(C)=C\C)C2O)OC(CO)C(O)C1O (stereo not drawn) [Trehangelin B]
toxicity towards animal cells (particularly, human cells) [1]: do not exhibit toxicity

B1: OrfA: enzyme protein encoded by SEQ ID NO: 2, enoyl-CoA hydratase from Polymorphospora rubra K07-0510 (protein)
chain: VTRPDAPGPPVAAPDPADAVVTAVEPYVVRATINRPARRNAIDLAVIEGLERAIDLAEATGARVLVLRGAGGTFCSGADLRVLEEMSVDPHRVETFMVRLALVLRRLETARFVSVAVVEGHAVAGGCEILLACDVSVAATDARIGDRHLEYGLVPAAGGSVRLARTLPKARGNYLLLAADLLTGEQAAQWGLVSVAVPPTDLEPRVDALVGRLVGHSADALAVVKKMVWTADHEPRPDAMSWERRLFLRHLGSEDVSEGLRAFRERRRPAFRADD
modifications: Polymorphospora rubra K07-0510; CDS (1)..(828)
production of angelyl-CoA from 3-hydroxy-2-methylbutyryl-CoA [2]: production of angelyl-CoA was observed

B2: OrfB: enzyme protein encoded by SEQ ID NO: 4, 3-ketoacyl-CoA synthase from Polymorphospora rubra K07-0510 (protein)
chain: MSTSTVIGTGSYLPRRVLSSGELARRVGVAENWIVEKTGIRERRVAADEEATSDLATRAARRALRTARLDPADVDLIVLATSTPDRPMPATASTVQANLGARQAVAFDVDAVCSGFVYALVVAHSMLNSEGWARTALVIGADTYSRVLDYTDRRTAVLFGDGAGAVVLGRETGGGSGIRATTLGTDGTLADLVQIPAGGSRRPASAQTVEAGDHYFAMRGGDVRRLANQVFPALVGQLLKAASLDLDQVDLIAAHQANGTMLTDWSRDLGLRPGVLHRTVERYGNTGAASVPVTLDDAVRTGRLGAAATLLMVAFGGGMTWGGVALDWSADPSVPRSNCVR
modifications: Polymorphospora rubra K07-0510; CDS (1)..(1026)
production of 2-methylacetoacetyl-CoA from acetyl-CoA and methylmalonyl-CoA [3]: production of 2-methylacetoacetyl-CoA was observed

B3: OrfD: enzyme protein encoded by SEQ ID NO: 8, 3-ketoacyl-CoA reductase from Polymorphospora rubra K07-0510 (protein)
chain: VTAGTGQPVVAAPGRALADRVVVVTGASRGVGRDLARVFADHGARLGLLARSRDALDDLGGTLTAAGADVLAVPCDVGEPDSLAGAVDAVAGHFGGIDSVVVNAGISPVARRAHHLPIDAWHDVLATNLTGGFVTARAAYPHLARSGRGRLVFTTSVMAATPRRGLSAYAASKAGLEGLTRALAADWAGDGILVNAVAPGFFDTGLGAAFHTSQRLHEQVVGRTPVARFGRADELAAAFVFLAGDACGYLTGQVLAVDGGYGLG
modifications: Polymorphospora rubra K07-0510; CDS (1)..(795)
production of 3-hydroxy-2-methylbutyryl-CoA from 2-methylacetoacetyl-CoA [4]: production of 3-hydroxy-2-methylbutyryl-CoA was observed

B4: OrfC: enzyme protein encoded by SEQ ID NO: 6, acyltransferase from Polymorphospora rubra K07-0510 (protein)
chain: MTTSALGAEPGATDPPAAPPVSYAPSGRMPRTINRWPRPFAPRNILGVLRARLRGATISLNQVKFDESTAERNALVMEHALLRHSHVARYAIVGPFTSLFKVRVGPYAGIAEKVTVGALPHWPELPTSHVFPVNAEFGFCAGEWPEVPGTEVGADAWIGAGAVVRAGVRIGHGAIVAAGAVVTRDVADYEIVAGVPARRLRSRFPDDLAERLVALAWWDWPPGFIKANIDLFQRPLTADTLAALEERARALPTPPGGAA
modifications: Polymorphospora rubra K07-0510; CDS (1)..(780)
acyltransferase activity (trehangelin from angelyl-CoA and trehalose) [5]: had an acyltransferase activity
